US10869937B2, “Polymer derivatives, and novel polymer derivative imaging probe using same” (Nippon Kayaku Kabushiki Kaisha, priority 2016, dated 2020)

Assay: Average particle size measurement with single nanoparticle size analyzer IG-1000 (induced diffraction grating method)
Assay type: physicochemical
Conditions: 1 mg/mL in ultrapure water, 25° C.
Experimental: The particle size (average particle size) of the nanoparticles according to the invention is measured by, for example, an induced diffraction grating method. An induced diffraction grating method is a method of: (1) irradiating a 1 or 2 mg/mL aqueous solution of the block copolymer of the present invention or a composition including the block copolymer with laser light, thereby forming diffraction gratings by dielectrophoresis; (2) stopping an external force that causes dielectrophoresis, measuring the annihilation rate of the diffraction gratings caused by diffusion, and (3) applying the annihilation rate to the Stokes-Einstein relational equation to obtain the particle size. For example, the particle size may be measured with a single nanoparticle size measuring apparatus, IG-1000, manufactured by Shimadzu Corp.
Measurement of the average particle sizes of the block copolymers of Synthesis Examples and Examples and compositions including those block copolymers was carried out using a single nanoparticle size analyzer, IG-1000, manufactured by Shimadzu Corp. (measurement temperature: 25° C., light intensity at t=0: 100 to 200). Regarding the sample for measuring the average particle size, a solution produced using ultrapure water to a block copolymer concentration of 1 mg/mL or 2 mg/mL and filtered through a 0.45 μm membrane filter, was used.

7-ethyl-10-hydroxycamptothecin (EHC)-Bonded and ALEXA FLUOR (registered trademark) 594 Cadaverin (Alexa)-Bonded Product of Polyethylene Glycol (2 kDa)-Polyglutamic Acid (8.3 Polymerization Units) Block Copolymer [Example 3]
average particle size: 10 nm
